Test results: patent US20130045922A1 (CHILDREN S MEDICAL CENTER, published 2013)

Biological target: I^125-VEGF
Test: cell-based or functional assay

I^125-VEGF, sequence (P15692 whole entry): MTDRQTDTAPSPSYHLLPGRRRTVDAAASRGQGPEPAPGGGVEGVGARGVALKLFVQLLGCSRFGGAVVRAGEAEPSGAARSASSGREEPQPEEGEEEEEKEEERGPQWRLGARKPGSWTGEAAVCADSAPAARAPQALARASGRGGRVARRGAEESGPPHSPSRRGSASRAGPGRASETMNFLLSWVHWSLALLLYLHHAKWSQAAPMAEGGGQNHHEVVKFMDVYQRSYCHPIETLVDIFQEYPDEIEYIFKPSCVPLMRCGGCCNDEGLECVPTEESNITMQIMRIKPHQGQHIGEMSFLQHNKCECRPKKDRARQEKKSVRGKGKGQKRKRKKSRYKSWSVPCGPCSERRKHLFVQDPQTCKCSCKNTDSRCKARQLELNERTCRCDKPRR

DRVQAQTTTVVA [Ala-5 (DRVQAQTTTVVA)] was tested, and the “ability of endothelial cells to bind VEGF in the presence of peptide” value was over 2 fold over original #237.
